From patent US20210054076A1 (Chugai, published 2021)
Residue numbers refer to the chain shown, from its start.

B1: CH02/CD3 (bispecific antibody, human IgG1, kappa, N297A)
heavy 1: EVQVEQSGLELVKPGASVKISCKTSGYTFTEYTMHWVKQSHGKSLEWIGGINPNNGNTRYNQKFKDKATLTVDKSSRTAYMELHTLTSEDSAVYYCARCGDYDLFFFFAYWGQGTLVTVSAASTKGPSVFPLAPSSKSTSGGTAALGCLVKDYFPEPVTVSWNSGALTSGVHTFPAVLQSSGLYSLSSVVTVPSSSLGTQTYICNVNHKPSNTKVDKKVEPKSCDKTHTCPPCPAPELRGGPKVFLFPPKPKDTLMISRTPEVTCVVVDVSHEDPEVKFNWYVDGVEVHNAKTKPREEQYASTYRVVSVLTVLHQDWLNGKEYKCKVSNKALPAPIEKTISKAKGQPREPQVYTLPPSREEMTKNQVSLTCLVKGFYPSDIAVEWESNGQPENNYKTTPPYLDSDGSFFLYSKLTVDKSRWQQGNVFSCSVMHEALHNHYTQESLSLSP
light 1: DIVMTQFQKFMSTSVGDRVSVTCKASQNVGTNVAWYQQKPGQSPEALISSASSRFSGVPDRFTGSGSGTDFTLTITNVQSEDLADYFCQQYNSFPFTFGSGTELEIKRTVAAPSVFIFPPSDEQLKSGTASVVCLLNNFYPREAKVQWKVDNALQSGNSQESVTEQDSKDSTYSLSSTLTLSKADYEKHKVYACEVTHQGLSSPVTKSFNRGEC
heavy 2: QVQLVESGGGVVQPGGSLRLSCAASGFTFSNAWMHWVRQAPGKGLEWVAQIKDKSQNYATYVAESVKGRFTISRADSKNSIYLQMNSLKTEDTAVYYCRYVHYAAGYGVDIWGQGTTVTVSSASTKGPSVFPLAPSSKSTSGGTAALGCLVKDYFPEPVTVSWNSGALTSGVHTFPAVLQSSGLYSLSSVVTVPSSSLGTQTYICNVNHKPSNTKVDKKVEPKSCDKTHTCPPCPAPELRGGPKVFLFPPKPKDTLMISRTPEVTCVVVDVSHEDPEVKFNWYVDGVEVHNAKTKPREEQYASTYRVVSVLTVLHQDWLNGKEYKCKVSNKALPAPIEKTISKAKGQPREPQVYTLPPSRKEMTKNQVSLTCLVKGFYPSDIAVEWESNGQPENNYKTTPPYLDSDGSFFLYSKLTVDKSRWQQGNVFSCSVMHEALHNHYTQKSLSLSP
light 2: DIVMTQSPLSLPVTPGEPASISCRSSQPLVHSNRNTYLHWYQQKPGQAPRLLIYKVSNRFSGVPDRFSGSGSGTDFTLKISRVEAEDVGVYYCGQGTQVPYTFGQGTKLEIKRTVAAPSVFIFPPSDEQLKSGTASVVCLLNNFYPREAKVQWKVDNALQSGNSQESVTEQDSKDSTYSLSSTLTLSKADYEKHKVYACEVTHQGLSSPVTKSFNRGEC
notes: Made by Fab arm exchange of the bivalent anti-CLDN6 antibody CH02 with the bivalent anti-CD3 antibody CD3-1; human IgG1 constant region; One anti-CLDN6 arm and one anti-CD3 arm; also called CLDN6-TRAB; CLDN6-targeted T-cell redirecting bispecific antibody
B2: CH03/CD3 (bispecific antibody, human IgG1, kappa, N297A)
heavy 1: B1 heavy 1 with L9P, D66G, R77S, H84R, Y102F
light 1: B1 light 1 with F7S, T31S, A46G, D85E, F94Y
heavy 2: B1 heavy 2
light 2: B1 light 2
notes: Made by Fab arm exchange of the bivalent anti-CLDN6 antibody CH03 with the bivalent anti-CD3 antibody CD3-1; human IgG1 constant region; One anti-CLDN6 arm and one anti-CD3 arm; also called CLDN6-TRAB; CLDN6-targeted T-cell redirecting bispecific antibody

Key:
human CLDN9 = biological target: T1, human CLDN9 (human, UniProt O95484 1-217); assay: FACS on Ba/F3 transfectant, antibody 20 micro g/ml, FITC anti-human IgG
T1 construct: whole, on cells; also called hCLDN9; BaF3_hCLDN9
T1 sequence (looked up): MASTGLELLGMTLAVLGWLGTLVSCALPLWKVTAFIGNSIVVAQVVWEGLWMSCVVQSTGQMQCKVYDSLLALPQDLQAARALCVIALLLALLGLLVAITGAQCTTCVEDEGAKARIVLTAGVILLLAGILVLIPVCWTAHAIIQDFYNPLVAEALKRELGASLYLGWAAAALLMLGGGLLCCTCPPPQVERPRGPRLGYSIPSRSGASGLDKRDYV
Method: (§1) To evaluate the binding activity and specificity of the generated CLDN6-TRABs against CLDN6 and other Claudin family antigens, FACS analysis was conducted as follows. Ba/F3 transfectants stably express a kind of protein selected from human CLDN3 (hCLDN3), human CLDN4 (hCLDN4), human CLDN6 (hCLDN6), human CLDN9 (hCLDN9), mouse CLDN3 (mCLDN3), mouse CLDN4 (mCLDN4) and mouse CLDN6 (mCLDN6), were generated using similar method described in WO2008/087978, and named BaF3_hCLDN3, BaF3_hCLDN4, BaF3_hCLDN6, BaF3_hCLDN9, BaF3 mCLDN3, BaF3 mCLDN4, BaF3 mCLDN6, respectively. Each of the CLDN6-TRABs (CH01/CD3, CH02/CD3, CH03/CD3, CH04/CD3) was incubated with the Ba/F3 transfectants at an antibody concentration of 20 micro g/ml in FACS buffer (0.5% BSA containing autoMACS Rinsing Solution, Miltenyl Biotec). Binding activities of each CLDN6-TRAB to the Claudin family proteins (hCLDN3, hCLDN4, hCLDN6, hCLDN9, mCLDN3, mCLDN4, mCLDN6) were examined by incubation of FITC-conjugated goat anti human IgG (BeckmanCoulter), represented as Geo-mean value. Sample processing was conducted on FACSVerse (BD).
(§2) Claudin family proteins have two extracellular domains. The sequence of the first extracellular domain in human CLDN9 is almost the same compared with the first extracellular domain of human CLDN6. For the second extracellular domain of human CLDN9, there are only two amino acids different from the ones at their corresponding positions in human CLDN6 (FIG. 2). The glutamine at position 156 of human Claudin 6 (position 156 in the sequence shown in SEQ ID NO: 44 or 45) was substituted to leucine to make a human CLDN6 mutant comprising the same amino acid as human Claudin 9 at position 156. This human CLDN6 mutant was named as hCLDN6(Q156L) (SEQ ID NO: 53). Ba/F3 transfectant stably express hCLDN6(Q156L) was generated using similar method described in WO2008/087978. The established Ba/F3 transfectant was named BaF3_hCLDN6(Q156L). Binding activity of the generated CLDN6-TRABs against BaF3_hCLDN6(Q156L) was measured using the above mentioned FACS method and the results are shown in FIG. 1 and Table 3.

human CLDN6 [1] = biological target: T2, human CLDN6 (human, UniProt P56747 1-220); assay: as above
T2 sequence: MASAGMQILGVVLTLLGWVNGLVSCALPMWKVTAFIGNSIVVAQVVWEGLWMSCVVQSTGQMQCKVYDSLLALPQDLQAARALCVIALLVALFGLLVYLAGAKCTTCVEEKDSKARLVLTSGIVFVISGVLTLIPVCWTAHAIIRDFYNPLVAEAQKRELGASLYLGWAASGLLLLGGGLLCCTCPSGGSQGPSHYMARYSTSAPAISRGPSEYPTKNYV
Method: as §1, §2

hCLDN6(Q156L) = biological target: T3, hCLDN6(Q156L) (human, UniProt P56747 1-220); assay: as above
T3 construct: Stably expressed on Ba/F3 cells; also called human CLDN6 mutant; BaF3_hCLDN6(Q156L)
T3 chain: T2 sequence with Q156L
Method: as §1, §2

mouse CLDN3 = biological target: T4, mouse CLDN3 (mouse, UniProt Q9Z0G9 1-219); assay: as above
T4 construct: whole, on cells; also called mCLDN3; BaF3_mCLDN3
T4 sequence (looked up): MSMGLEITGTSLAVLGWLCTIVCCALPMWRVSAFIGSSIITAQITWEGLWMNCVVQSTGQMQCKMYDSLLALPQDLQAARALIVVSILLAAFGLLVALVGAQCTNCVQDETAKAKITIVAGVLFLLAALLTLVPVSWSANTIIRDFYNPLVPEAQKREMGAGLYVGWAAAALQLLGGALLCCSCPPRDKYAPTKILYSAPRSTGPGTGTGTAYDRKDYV
Method: as §1, §2

mouse CLDN6 = biological target: T5, mouse CLDN6 (mouse, UniProt Q9Z262 1-219); assay: as above
T5 construct: whole, on cells; also called mCLDN6; BaF3_mCLDN6
T5 sequence (looked up): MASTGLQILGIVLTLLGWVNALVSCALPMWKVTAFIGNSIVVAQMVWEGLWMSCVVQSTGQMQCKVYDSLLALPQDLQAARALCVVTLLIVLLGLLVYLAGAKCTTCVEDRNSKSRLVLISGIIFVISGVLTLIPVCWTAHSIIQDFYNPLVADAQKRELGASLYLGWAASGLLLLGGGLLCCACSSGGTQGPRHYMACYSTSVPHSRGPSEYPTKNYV
Method: as §1, §2

human CLDN4 = biological target: T6, human CLDN4 (human, UniProt O14493 1-209); assay: as above
T6 construct: whole, on cells; also called hCLDN4; BaF3_hCLDN4
T6 sequence (looked up): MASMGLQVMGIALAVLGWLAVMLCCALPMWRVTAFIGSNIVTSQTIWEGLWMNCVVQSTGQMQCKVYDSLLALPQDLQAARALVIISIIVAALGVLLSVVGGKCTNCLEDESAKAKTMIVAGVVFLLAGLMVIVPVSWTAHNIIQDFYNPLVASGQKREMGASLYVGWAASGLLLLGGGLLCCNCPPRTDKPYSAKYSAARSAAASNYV
Method: as §1, §2

mouse CLDN4 = biological target: T7, mouse CLDN4 (mouse, UniProt O35054 1-210); assay: as above
T7 construct: whole, on cells; also called mCLDN4; BaF3_mCLDN4
T7 sequence (looked up): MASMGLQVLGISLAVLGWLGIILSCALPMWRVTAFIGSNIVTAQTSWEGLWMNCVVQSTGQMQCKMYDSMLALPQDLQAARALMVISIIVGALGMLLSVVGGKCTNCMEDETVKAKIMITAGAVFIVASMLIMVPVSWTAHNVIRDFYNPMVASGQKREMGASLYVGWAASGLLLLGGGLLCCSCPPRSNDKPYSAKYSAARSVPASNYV
Method: as §1, §2

human CLDN3 = biological target: T8, human CLDN3 (human, UniProt O15551 1-220); assay: as above
T8 construct: whole, on cells; also called hCLDN3; BaF3_hCLDN3
T8 sequence (looked up): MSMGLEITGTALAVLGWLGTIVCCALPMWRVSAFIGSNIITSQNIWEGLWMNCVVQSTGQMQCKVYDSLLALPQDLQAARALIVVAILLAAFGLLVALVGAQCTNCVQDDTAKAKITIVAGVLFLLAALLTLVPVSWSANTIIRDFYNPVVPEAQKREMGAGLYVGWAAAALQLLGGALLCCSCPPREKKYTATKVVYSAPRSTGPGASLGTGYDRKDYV
Method: as §1, §2

human CLDN6 [2] = biological target: T2, human CLDN6; assay: cell-based or functional assay
human CLDN6 [3] = biological target: T2, human CLDN6; assay: cell-based or functional assay; remark: listed apart in the source

Molecule | Geo-mean value of FACS (human CLDN9) | Geo-mean value of FACS (human CLDN6 [1]) | Geo-mean value of FACS (hCLDN6(Q156L)) | Geo-mean value of FACS (mouse CLDN3) | Geo-mean value of FACS (mouse CLDN6) | Geo-mean value of FACS (human CLDN4) | Geo-mean value of FACS (mouse CLDN4) | Geo-mean value of FACS (human CLDN3) | EC50 (read off the curve), Jurkat/NFAT-RE luciferase reporter, target cells PA-1 (human CLDN6 [2]) | EC50 (read off the curve), Jurkat/NFAT-RE luciferase reporter, target cells ABC-1 (human CLDN6 [3])
isotype control (antibody) | 96 | 29 | 62 | 29 | 43 | 42 | 31 | 78 | – | –
B1 | 84 | 4740 | 69 | 27 | 1760 | 35 | 22 | 37 | ~0.03 nM | ~0.05 nM
B2 | 184 | 7700 | 98 | 26 | 559 | 35 | 22 | 37 | ~0.02 nM | ~0.04 nM
